Measured values published in paper PMC4145081 (2014).

How the values were obtained:
[1] = biological target: human SCARB2 on 293A-hSCARB2 cells pretreated with PNGase F (human) (UniProt Q14108)
[2] = biological target: human SCARB2 on 293A-hSCARB2 cells pretreated with PNGase F (human) (UniProt Q14108); assay: flow cytometry on cells; binding of EV71 to 293A-hSCARB2 cells pretreated with or without PNGase F; details in the Extended Experimental Procedures
[3] = biological target: EV71 mature virions (human enterovirus 71 (EV71))
[4] = biological target: EV71 mature virions (human enterovirus 71 (EV71)); remark: listed apart in the source
[5] = biological target: T1, EV71 mature virions (human enterovirus 71 (EV71)); assay: ITC
T1 chain 1: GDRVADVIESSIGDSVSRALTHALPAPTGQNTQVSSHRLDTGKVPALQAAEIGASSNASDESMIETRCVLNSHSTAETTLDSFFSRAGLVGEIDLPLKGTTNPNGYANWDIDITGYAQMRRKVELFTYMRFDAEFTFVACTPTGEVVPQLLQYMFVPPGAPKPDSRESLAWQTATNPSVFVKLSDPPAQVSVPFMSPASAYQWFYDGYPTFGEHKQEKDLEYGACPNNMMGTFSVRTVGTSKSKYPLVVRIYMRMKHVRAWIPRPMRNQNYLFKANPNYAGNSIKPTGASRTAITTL
T1 chain 2: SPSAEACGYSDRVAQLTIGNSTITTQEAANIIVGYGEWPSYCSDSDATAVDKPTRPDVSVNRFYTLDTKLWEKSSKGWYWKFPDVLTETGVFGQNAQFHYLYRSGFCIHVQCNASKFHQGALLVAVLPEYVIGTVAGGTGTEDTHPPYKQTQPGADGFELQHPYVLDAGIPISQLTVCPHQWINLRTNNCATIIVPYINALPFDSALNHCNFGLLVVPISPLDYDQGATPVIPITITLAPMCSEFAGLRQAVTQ
T1 chain 3: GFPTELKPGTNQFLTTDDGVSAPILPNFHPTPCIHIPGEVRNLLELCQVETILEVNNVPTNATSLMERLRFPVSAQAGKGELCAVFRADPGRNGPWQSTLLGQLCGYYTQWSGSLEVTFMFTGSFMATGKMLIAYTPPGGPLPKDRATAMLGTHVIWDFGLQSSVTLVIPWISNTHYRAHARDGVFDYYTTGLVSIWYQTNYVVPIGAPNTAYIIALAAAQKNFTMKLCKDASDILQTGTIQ
T1 chain 4: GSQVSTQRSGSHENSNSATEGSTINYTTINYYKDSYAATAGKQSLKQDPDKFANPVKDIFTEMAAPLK

human SCARB2 on 293A-hSCARB2 cells pretreated with PNGase F (human), sequence (Q14108 whole entry): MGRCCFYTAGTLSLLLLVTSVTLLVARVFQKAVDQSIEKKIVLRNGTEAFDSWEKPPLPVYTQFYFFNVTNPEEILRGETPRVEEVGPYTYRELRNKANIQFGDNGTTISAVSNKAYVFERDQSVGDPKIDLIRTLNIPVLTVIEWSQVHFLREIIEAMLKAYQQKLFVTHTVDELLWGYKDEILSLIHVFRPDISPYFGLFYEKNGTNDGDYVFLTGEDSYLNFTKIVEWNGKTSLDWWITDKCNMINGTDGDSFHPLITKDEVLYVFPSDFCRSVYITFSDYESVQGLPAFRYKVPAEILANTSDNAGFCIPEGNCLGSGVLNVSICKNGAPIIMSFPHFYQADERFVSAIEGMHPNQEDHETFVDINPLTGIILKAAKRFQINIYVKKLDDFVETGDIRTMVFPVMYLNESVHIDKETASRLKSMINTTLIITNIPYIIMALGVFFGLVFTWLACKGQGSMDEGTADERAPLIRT

With EV71 mature virions (complex) the decrease in infection efficiency of EV71-GFP on 293A-hSCARB2 cells pretreated with PNGase F, against untreated cells (GFP-positive cells 16 h post infection) [1] was 40% and the reduction of binding against untreated cells [2] was 30%.

“recombinant SCARB2-His-tag protein (ectodomain of scavenger receptor class B 2)” showed a [3H]-labeled sphingosine removed from EV71 mature virions by excess recombinant SCARB2 (60:1) at pH 5.0, 37°C, 1-4 h [3] of 90% and a conversion of mature virions (~160 S) into ~125 S particles (A particles) by sedimentation velocity AUC after 1 h at 37°C with SCARB2 at pH 7.4 [4] of 5%.

With WSQVHFLREIIEAMLKAYQQK [synthesized peptide of SCARB2 (aa 146-166)] the Kd [5] was 4.2 µM.
